Sequences and labels used below:
B1: 5F11-hIgG1 (antibody, V domains shown)
VH: EVQLVESGGGLVQPGRSLKLSCAASGFSFSNYGMAWVRQAATKGLEWVASISTGGGNTYYRDSVKGRFIVSRDNAKNTQYLQMDSLRSEDTATYYCTRHDRGGLYWGQGVMVTVSS
VL: DIVMTQAPLSVSVTPGESASISCRSSKSLLHSNGITYVYWYFQKPGKSPQVLIYRMSNLASGVPDRFSGSGSETDFTLKISRVEAEDVGIYHCGQLLENPYTFGAGTELELK
B2: Lab01-huFc (antibody, V domains shown)
VH: EVQLQASGGGSVQAGGSRRLSCVASGYAGGIAYMAWFRQTPGKGREGVALIATSGTTSYANSVKGRFTIFRDGADNTVYLEMSSLKPEDTATYYCAAKSRLGWPGLETSQFKYWGQGTQVTVSS
B3: HAB01-H1 (antibody, V domains shown)
VH: EVQLVESGGGLVQPGGSLRLSCAASGYAGGIAYMAWFRQAPGKGREGVANIATSGTTYYVDSVKGRFTISRDGAKNSLYLQMNSLRAEDTAVYYCAAKSRLGWPGLETSQFKYWGQGTMVTVSS
B4: HAB01-H3 (antibody, V domains shown)
VH: B3 VH with N50L, Y58S
B5: HAB01-H7 (antibody, V domains shown)
VH: B3 VH with N50L, Y58S, V60A, L78V
B6: HAB01-H6 (antibody, V domains shown)
VH: B3 VH with E6A, N50L, Y58S, L78V
B7: HAB01-H8 (antibody, V domains shown)
VH: B3 VH with N50L, Y58S, K75D, L78V
B8: JNJ7564-hIgG1 (antibody, V domains shown)
VH: QVQLVQSGAEVKKPGASVKVSCKASGYSFTGYTMNWVRQAPGQGLEWMGLINPYNSDTNYAQKLQGRVTMTTDTSTSTAYMELRSLRSDDTAVYYCARVALRVALDYWGQGTLVTVSS
VL: DIQMTQSPSSLSASVGDRVTITCKASQNVATHVGWYQQKPGKAPKRLIYSASYRYSGVPSRFSGSGSGTEFTLTISNLQPEDFATYYCQQYNRYPYTFGQGTKLEIK
B9: MCARH109-scFv-huFc (antibody, V domains shown)
VH: QVQLVESGGGLVHPGGSLRLSCAASGFTFRSHSMNWVRQAPGKGLEWVSSISSDSTYTYYADSVKGRFTISRDNAKNSLYLQMNSLRAEDTAVYYCARSGGQWKYYDYWGQGTLVTVSS
VL: SSELTQDPAVSVALGQTVRITCQGDSLRSYYASWYQQKPGQAPVLVIYGKNNRPSGIPDRFSGSSSGNTASLTITGAQAEDEADYYCNSRDSSGNPPVVFGGGTKLTVL
B10: HAB06-H5 (designed binder)
chain: EVQLVESGGGLVQPGGSLRLSCAASGFTFSSAWMYWFRQAPGKGLEWVSHIDPRGGSTYYADSVKGRFTISRDNAKNTLYLQMNSLRAEDTAVYYCAKDLRGLGRGQGTQVTVSS
B11: Lab06-huFc (designed binder)
chain: B10 chain with E1Q, A23T, N84R, R87K, A88S
B12: Lab05-huFc (antibody, V domains shown)
VH: QVQLVESGGGLVQPGGSLRLSCAASGILVSAYVMAWYRQPPGKQRDLVARLSTDGRTTYADSVKGRFTISKDNAKSTLYLQMNTLKSEDTAVYYCYAERSRGHWGQGTQVTVSS
B13: HAB05-H3 (antibody, V domains shown)
VH: B12 VH with Q1E, P40A, D46V, A49S, T84S, K86R, S87A, Q109M
B14: HAB03-H8 (antibody, V domains shown)
VH: EVQLVESGGGLVQPGGSLRLSCAASGDTANCIGWFRQAPGKGLEGVAAIYTGLGNTYYANSAKGRFTISQDNAKNSVYLQMNSLRAEDTAVYYCAAGGILGRFCSRYFGQGTMVTVSS
B15: HAB03-H10 (antibody, V domains shown)
VH: B14 VH with L43R, Q70R
B16: HAB03-H9 (antibody, V domains shown)
VH: B14 VH with N30S, L43R
B17: HAB03-H5 (antibody, V domains shown)
VH: B14 VH with L43R

Substitutions are numbered along the chain they refer to.

The target in one test is T1, human GPRC5D (human).
T1 chain: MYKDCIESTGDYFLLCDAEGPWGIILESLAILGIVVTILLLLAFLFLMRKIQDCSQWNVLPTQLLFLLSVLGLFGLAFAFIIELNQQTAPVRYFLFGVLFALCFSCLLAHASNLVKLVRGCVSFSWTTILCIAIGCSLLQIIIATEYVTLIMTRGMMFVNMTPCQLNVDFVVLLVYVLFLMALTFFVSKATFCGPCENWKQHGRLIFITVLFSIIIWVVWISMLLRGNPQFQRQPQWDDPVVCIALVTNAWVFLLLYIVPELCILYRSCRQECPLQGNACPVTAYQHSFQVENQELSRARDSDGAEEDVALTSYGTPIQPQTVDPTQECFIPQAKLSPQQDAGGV
The experiment in a line: FACS RPMI-8226.
Usually EC50 stands for the concentration giving half of the maximal effect. B1 showed a 50% effective concentration (EC50) of 0.0265 µM.
On the same count and under the same terms, as for B2, the figure is 0.00208 µM; as for B3, 0.103 µM; as for B4, 0.036 µM.
The same measure, in the same setting: as for B5, the figure is 0.0037 µM; as for B6, 0.0257 µM; as for B7, 0.00177 µM.
As for B8, the EC50 was approximately 5.46 µM.

The target of the next test is T1, human GPRC5D. The experiment in a line: FACS NCI-H929.
The molecule B1 returned a 50% effective concentration (EC50) of 0.00305 µM.
Same read-out and setting: then B2, with 0.000653 µM; and B3, with 0.00163 µM.
Regarding B4, a half-maximal effect (EC50) was put at 0.00102 µM.
On the same count and under the same terms, as for B5, the figure is 0.000916 µM.
B6 gave an EC50 of 0.000666 µM.
Regarding B7, the EC50 worked out at 0.00141 µM.
B8 gave a concentration giving a half-maximal response (EC50) of 0.0179 µM.

The next test addresses T1, human GPRC5D. In words: FACS molp-8.
For B1, the midpoint of the response, the EC50, lay at 0.00564 µM.
For B8, a half-maximal effect (EC50) was put at 0.0413 µM.

Another test deals with T1, human GPRC5D. The experiment in a line: FACS molp-8. This is another data set of the same source.
In turn, B1 registered a concentration for a half-maximal effect (EC50) of 0.0126 µM.
With B8, a half-maximal response (EC50) required 0.0459 µM.

The next test concerns the target T1, human GPRC5D. In words: FACS NCI-H929. This is another data set of the same source.
B1 came in with a 50% effective concentration (EC50) of 0.00269 µM.
As to B8, a half-maximal response (EC50) required 0.00988 µM.

A further test concerns the target T1, human GPRC5D. The experiment in a line: ELISA. Background: In an ELISA, binding on a coated surface is turned into a signal by an enzyme label.
In turn, B1 displayed an EC50 of 0.0498 nM.
Molecule B2 displayed a 50% effective concentration (EC50) of 0.0182 nM.
Still for that read-out and setting: then B3, with 0.023 nM; and B4, with 0.0259 nM.
With B5, the 50% effective concentration (EC50) is 0.0264 nM.
For the molecule B6, the midpoint of the response, the EC50, lay at 0.0178 nM.
With B7, the 50% effective concentration (EC50) was found to be 0.0336 nM.
As for B8, a half-maximal effect (EC50) was put at 0.0379 nM.

In the next test the target is T1, human GPRC5D. In words: FACS molp-8. This is another data set of the same source.
Turning to B9, a half-maximal response (EC50) required 3.23 nM.
B10 returned a 50% effective concentration (EC50) of 0.178 nM.
The molecule B11 returned an EC50 of 0.132 nM.
Same read-out and setting: as for B12, the figure is 0.0616 nM; as for B13, 0.0433 nM.

In a further test the target is T1, human GPRC5D. The experiment in a line: FACS RPMI-8226. This is another data set of the same source.
In turn, B1 yielded a half-maximal effective concentration (EC50) of 0.00707 µM.
Same read-out and setting: then B8, with 0.0734 µM.

In a further test the target is T1, human GPRC5D. In words: ELISA. The source holds these as a separate data set.
Consider B1, for which the 50% effective concentration (EC50) worked out at 0.0295 nM.
Same read-out and setting: as for B8, the figure is 0.028 nM.

The target in the next test is T1, human GPRC5D. The experiment in a line: ELISA. The source holds these as a separate data set.
Take B1: the midpoint of the response, the EC50, lay at 0.0659 nM.
B14 returned an EC50 of 0.0462 nM.
Still for that read-out and setting: then B15, with 0.0324 nM; and B16, with 0.0326 nM.
Molecule B17 gave a concentration for a half-maximal effect (EC50) of 0.0353 nM.
Regarding B8, the 50% effective concentration (EC50) was found to be 0.0559 nM.

A further test addresses T1, human GPRC5D. The experiment in a line: FACS RPMI-8226. The source holds these as a separate data set.
B1 came in with an EC50 of 0.0121 µM.
As for B8, the half-maximal effective concentration (EC50) is approximately 635 µM.

The target in the next test is T1, human GPRC5D. In words: FACS RPMI-8226. This is another data set of the same source.
Consider B1, for which the EC50 was found to be 0.0187 µM.
Molecule B14 had a 50% effective concentration (EC50) of 0.00066 µM.
On to B15, for which the EC50 amounted to 0.00143 µM.
Still for that read-out and setting: as for B16, the figure is 0.000777 µM; as for B17, 0.0415 µM.
Take B8: the EC50 was approximately 1360 µM.

The target in another test is T1, human GPRC5D. In words: FACS molp-8. The source holds these as a separate data set.
Turning to B1, the concentration for a half-maximal effect (EC50) was found to be 0.00368 µM.
For the molecule B14, the midpoint of the response, the EC50, lay at 0.00122 µM.
Turning to B15, the concentration for a half-maximal effect (EC50) was 0.000762 µM.
Turning to B16, the 50% effective concentration (EC50) turned out to be 0.000849 µM.
Same read-out and setting: then B17, with 0.000738 µM.
In turn, B8 gave a 50% effective concentration (EC50) of 0.0344 µM.

Another test deals with T1, human GPRC5D. In words: FACS RPMI-8226. This is another data set of the same source.
Consider B10, for which the EC50 turned out to be 0.000387 µM.
The same measure, in the same setting: as for B11, the figure is 0.000261 µM.
On the same count and under the same terms, as for B12, the figure is 0.0316 µM; as for B13, 0.00012 µM.

The next test addresses T1, human GPRC5D. The experiment in a line: ELISA. This is another data set of the same source.
In turn, B1 registered an EC50 of 0.0371 nM.
B8 had a concentration giving a half-maximal response (EC50) of 0.0211 nM.

For the next test, the target named is T1, human GPRC5D. In words: FACS CHOK1-human GPRC5D.
Turning to B9, it took 0.000286 µM to reach a half-maximal effect (EC50).
With B10, the concentration giving a half-maximal response (EC50) is 0.000241 µM.
As for B11, the EC50 worked out at 0.00022 µM.
B12: the midpoint of the response, the EC50, lay at 0.000279 µM.
On the same count and under the same terms, then B13, with 0.000249 µM.

For the next test, the target named is T1, human GPRC5D. The experiment in a line: FACS molp-8. The source holds these as a separate data set.
The molecule B1 gave a concentration giving a half-maximal response (EC50) of 0.00292 µM.
With B2, it took 0.000625 µM to reach a half-maximal effect (EC50).
Molecule B3 showed an EC50 of 0.0033 µM.
As to B4, a half-maximal response (EC50) required 0.00137 µM.
The same measure, in the same setting: as for B5, the figure is 0.00076 µM; as for B6, 0.000755 µM.
B7 registered a half-maximal effective concentration (EC50) of 0.00124 µM.
B8 came in with a concentration giving a half-maximal response (EC50) of 0.0269 µM.

The next test addresses T1, human GPRC5D. In words: FACS NCI-H929. The source holds these as a separate data set.
For the molecule B9, the EC50 came out at 2.45 nM.
The same measure, in the same setting: then B10, with 0.38 nM; and B11, with 0.273 nM.
With B12, the EC50 was determined as 0.111 nM.
With B13, the concentration giving a half-maximal response (EC50) is 0.0861 nM.

Another test deals with T1, human GPRC5D. In words: FACS NCI-H929. The source holds these as a separate data set.
In turn, B1 had an EC50 of 0.00196 µM.
Still for that read-out and setting: as for B8, the figure is 0.00697 µM.

The target of a further test is T1, human GPRC5D. In words: FACS NCI-H929. This is another data set of the same source.
Consider B1, for which the EC50 was found to be 0.0029 µM.
On the same count and under the same terms, then B14, with 0.00141 µM; and B15, with 0.000944 µM; and B16, with 0.000896 µM.
The molecule B17 had an EC50 of 0.000892 µM.
Same read-out and setting: as for B8, the figure is 0.0256 µM.

For the origin of these results see patent US20260285971 (published 2026).
